Measurements reported in publication PMC10506259, “A glycosylated Phr1 protein is induced by calcium stress and its expression is positively controlled by the calcium/calcineurin signaling transcription factor Crz1 in Candida albicans”.

What was measured:
6xHis-Crz1 (CaCrz1) [1] = molecular target: T1, 6xHis-Crz1 (CaCrz1) (Candida albicans, UniProt Q5A4H5 1-731); assay: EMSA; 1 ug protein; DIG Gel Shift Kit (Roche), per manufacturer; buffer, salt, pH and temperature not stated; conditions: protein: recombinant; tags: His6; label: DIG at 3' end; blunt
T1 sequence: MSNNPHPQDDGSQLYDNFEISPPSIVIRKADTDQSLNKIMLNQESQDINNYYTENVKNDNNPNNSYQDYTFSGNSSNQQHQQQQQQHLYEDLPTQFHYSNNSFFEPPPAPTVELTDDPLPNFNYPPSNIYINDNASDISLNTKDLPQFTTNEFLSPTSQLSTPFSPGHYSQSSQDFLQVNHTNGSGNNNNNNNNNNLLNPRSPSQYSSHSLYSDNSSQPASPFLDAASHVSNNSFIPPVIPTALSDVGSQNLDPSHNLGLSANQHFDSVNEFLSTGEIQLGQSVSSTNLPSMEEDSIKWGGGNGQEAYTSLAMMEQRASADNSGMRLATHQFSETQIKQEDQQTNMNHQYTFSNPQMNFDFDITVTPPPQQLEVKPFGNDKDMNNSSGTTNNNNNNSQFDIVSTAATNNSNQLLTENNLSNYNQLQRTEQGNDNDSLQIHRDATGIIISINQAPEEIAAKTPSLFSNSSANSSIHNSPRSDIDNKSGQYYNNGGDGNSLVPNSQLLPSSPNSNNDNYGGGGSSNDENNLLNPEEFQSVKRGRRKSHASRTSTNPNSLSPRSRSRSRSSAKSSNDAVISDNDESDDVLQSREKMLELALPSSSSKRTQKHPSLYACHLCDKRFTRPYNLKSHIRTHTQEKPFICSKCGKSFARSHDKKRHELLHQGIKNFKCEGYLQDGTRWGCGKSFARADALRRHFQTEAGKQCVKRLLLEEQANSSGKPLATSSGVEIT

6xHis-Crz1 (CaCrz1) [2] = molecular target: T1, 6xHis-Crz1 (CaCrz1); assay: competition; unlabelled probe abolished binding to DIG-labelled N1; 1 ug protein; DIG Gel Shift Kit (Roche), per manufacturer; buffer, salt, pH and temperature not stated; conditions: protein: recombinant; tags: His6; blunt

B1: EMSA_PHR1_F/R (PHR1 promoter CDRE probe) (dsDNA)
DNA 1: CCTTTCTCATAGGAATTCATCGACGCCTCATTCATACTAATATAATAGGT
DNA 2: ACCTATTATATTAGTATGAATGAGGCGTCGATGAATTCCTATGAGAAAGG
binding result (6xHis-Crz1 (CaCrz1) [1]): binds

B2: unlabelled EMSA_PHR1_F/R (specific competitor) (dsDNA)
DNA 1: B1 DNA 1
DNA 2: B1 DNA 2
binding result (6xHis-Crz1 (CaCrz1) [2]): binds
